B1: anti-renalase monoclonal antibody 1F-26-1 (antibody, V domains shown)
VH: QSVKESEGGLFKPTDTLTLTCTVSGFSLSSYGVTWVRQAPGNGLEWIGLIGDRGTTFYASWAKSRSTITRNTNLNTVTLKMTRLTAADTATYFCARGSGYGARIWGPGTLVTVSS
VL: AQVLTQTPSPVSAAVGGTVTINCQSSQSVYKNNYLAWYQQKPGQPPKLLIYETSKLASGVPPRFSGSGSGTQFTLTISSVQCDDAATYYCQGGYSGVDFMAFGGGTEVVVKG
notes: Rabbit monoclonal IgG raised against peptide 1F; Biotinylated in the Biacore study; also called Bio-1F 26-1
B2: anti-renalase monoclonal antibody 1F-42-7 (antibody, V domains shown)
VH: QSVKESEGGLFKPTDTLTLTCTVSGFSLTTYGVTWVRQAPGNGLEWIGLIGDRGTTYYASWVNGRSTITRNTNLNTVTLKMTRLTAADTATYFCARGSGYGARIWGPGTLVTVAS
VL: AQVLTQTPSPMSAALGGTVTINCQSSQTVYNNNYLSWYQQKPGQPPKLLIYETSKLSSGVPPRFSGSGSGTQFTLTISSVQCDDAATYYCQGGYSGVDFMAFGGGTEVVVKG
notes: Rabbit monoclonal IgG raised against peptide 1F; Biotinylated in the Biacore study; also called Bio-1F 42-7
B3: anti-renalase monoclonal antibody 1D-28-4 (antibody, V domains shown)
VH: QSVEESGGRLVTPGTPLTLTCTVSGFSLSSFAVGWVRQAPGKGLEYIGIISSVGITRYASWAAGRFTISKTSTTVDLKITSPTTEDTATYFCARYGYSGDVNRLDLWGQGTLVTVSS
VL: AQVLTQTASPVSAAVGGTVTINCQASQSVYDNNNLAWYQQKPGQPPKQLIYGASTLASGVSSRFKGSGSGTQFTLTISGVQCDDAATYYCLGEFSCSSADCFAFGGGTEVVVKG
notes: Rabbit monoclonal IgG raised against peptide 1D (RP-220); also called m28-RNLS; Bio-1D 28-4
B4: anti-renalase monoclonal antibody 1D-37-10 (antibody, V domains shown)
VH: QSVEESGGRLVTPGGSLTLTCTVSGFSLSDYAIIWVRQAPGKGLEYIAIIGSSGDTFYATWAKGRFTISKTSTTVDLKMTSLTAADTATYFCAPRYAGTTDYHDAFDPWGPGTLVTVSS
VL: EVVMTQTPASMEAPMGGTVTIKCQASQNIYNYLSWYQQKPGQPPKLLVYKASTLTSGVPSRFKGSGSGTQFTLTISDLECADAATYYCQINYSIYNHYNIIFGGGTEVVVKG
notes: Rabbit monoclonal IgG raised against peptide 1D (RP-220); Biotinylated in the Biacore study; also called m37-RNLS; Bio-1D 37-10

These binders were tested against T1, human renalase-1 (Homo sapiens, UniProt Q5VYX0 18-342, limits assumed) (assay: SPR, Biacore T100; biotinylated antibody captured on streptavidin chip, renalase-1 in solution).
T1 construct: Whole entry named for renalase-1 (Glu at position 37); also called R1; HuRenalase-1
T1 sequence (Q5VYX0 18-342 limits assumed): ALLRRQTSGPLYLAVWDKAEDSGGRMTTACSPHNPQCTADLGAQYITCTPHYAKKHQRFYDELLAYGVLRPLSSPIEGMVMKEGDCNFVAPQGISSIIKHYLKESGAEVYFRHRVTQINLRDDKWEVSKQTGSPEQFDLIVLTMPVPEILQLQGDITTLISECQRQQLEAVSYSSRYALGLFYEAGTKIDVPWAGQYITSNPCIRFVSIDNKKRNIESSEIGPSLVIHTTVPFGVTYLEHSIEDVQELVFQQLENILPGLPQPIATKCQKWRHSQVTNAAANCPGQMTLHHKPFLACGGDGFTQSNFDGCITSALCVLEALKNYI
Protocol: Binding studies were performed using a Biacore T100. Binding studies were performed at 25° C. using 25 mM Tris pH 8, 150 mM NaCl, 1 mM EDTA, 10% glycerol, 0.005% Tween-20 and 0.1 mg/mL BSA as the running buffer. The biotinylated antibodies were captured on individual streptavidin sensor chip flow cells as shown below. Because the study took two sensor chips, the analysis of two of the mAbs on the second sensor chip was repeated to gather more data. Renalase-1 was tested at 50 nM as the highest concentration in a three-fold dilution series. Each of 5 concentrations was tested in duplicate. Bound complexes were regenerated with a short pulse of 1/1000 phosphoric acid.

Binder	Kd	koff	kon
B1	2.25 nM	0.000102 s⁻¹	45300 M⁻¹ s⁻¹
B2	2.41 nM	9.47e-05 s⁻¹	39300 M⁻¹ s⁻¹
B3	0.316 nM	2.04e-05 s⁻¹	64700 M⁻¹ s⁻¹
B4	2.67 nM	4.67e-05 s⁻¹	17500 M⁻¹ s⁻¹
